Source: patent US6787341B2, “Pharmacological targeting of bacterial DNA ligase for treatment and prevention of bacterial infections” (priority 2001, dated 2004)

Test system: NC(=O)c1ccc[n+]([C@@H]2O[C@H](COP(=O)([O-])OP(=O)(O)OC[C@H]3O[C@@H](n4cnc5c(N)ncnc54)[C@H](O)[C@@H]3O)[C@@H](O)[C@H]2O)c1
Assay: Nucleotide cofactor specificity of AmEPV ligase in nick ligation
Assay type: biochemical, Amsacta moorei entomopoxvirus
Settings: other: from double-reciprocal plot, sub-saturating enzyme; pH 7.5; 22.0 °C
Protocol: Reaction mixtures (20 μl) containing 50 mM Tris-HCl (pH 7.5), 10 mM (NH4)2SO4, 5 mM DTT, 5 mM MgCl2, 1 pmol of ^32P-labeled nicked DNA, 32 ng of AmEPV ligase, and 50 μM of the indicated nucleotide were incubated for 30 min at 22° C. A control reaction contained no added nucleotide cofactor (none). The reaction products were resolved by polyacrylamide gel electrophoresis. An autoradiogram of the gel is shown.
A low level of nick ligation could be detected in the absence of added nucleotide (FIG. 6). Cofactor-independent ligation was attributed to pre-adenylated ligase in the enzyme preparation. […] Inclusion of NAD^+ in the reaction mixture stimulated nick ligation such that ˜90% of the input substrate molecules were sealed (FIG. 6). […] Indeed, none of the standard rNTPs or dNTPs were able to satisfy the requirement of AmEPV ligase for a high energy cofactor (FIG. 6). […] A Km of 9 μM NAD^+ was calculated from a double-reciprocal plot of the data.

## AmEPV ligase (Betaentomopoxvirus amoorei)
  Km: 9 µM
